What was measured:
5HT3a = molecular target: T1, 5HT3a (Homo sapiens, UniProt P46098); test: Ion channel panel (IonWorks Barracuda): 5HT3a; format: cell-based
T1 construct: host or cells: HEK293 or CHO
T1 sequence (P46098 whole entry, looked up): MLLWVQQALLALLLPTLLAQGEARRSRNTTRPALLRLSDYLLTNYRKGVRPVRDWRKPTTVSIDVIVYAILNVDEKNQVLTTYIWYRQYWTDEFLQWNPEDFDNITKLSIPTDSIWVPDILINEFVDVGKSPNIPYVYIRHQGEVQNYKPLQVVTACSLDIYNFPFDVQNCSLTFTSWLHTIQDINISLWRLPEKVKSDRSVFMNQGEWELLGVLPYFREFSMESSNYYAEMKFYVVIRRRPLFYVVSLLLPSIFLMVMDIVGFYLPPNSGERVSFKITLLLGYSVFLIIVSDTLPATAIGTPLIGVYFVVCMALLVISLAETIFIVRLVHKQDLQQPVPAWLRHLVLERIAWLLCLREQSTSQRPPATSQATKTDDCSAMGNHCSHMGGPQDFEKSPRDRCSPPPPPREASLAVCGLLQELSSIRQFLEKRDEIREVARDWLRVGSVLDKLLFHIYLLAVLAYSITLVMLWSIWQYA
Procedure, shortened: (§1)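 Peptides were tested in duplicate at final 20 μM and 200 nM, with concentration set by amino acid analysis, in HEPES-buffered saline. They were applied for at least 5 min to HEK293 or CHO cells transfected with each channel. Currents were expressed as % inhibition, 1-(Ipeptide/Icontrol)×100, or % activation, Ipeptide/Icontrol×100, against a channel-matched reference compound.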

α3β4 = molecular target: T2, α3β4 (Homo sapiens, UniProt P30926+P32297); test: Ion channel panel (IonWorks Barracuda): α3β4; format: cell-based; conditions: 100% = no change, <100% = inhibition
T2 construct: host or cells: HEK293 or CHO
Procedure, shortened: as §1

α4β2 = molecular target: T3, α4β2 (Homo sapiens, UniProt P17787+P43681); test: Ion channel panel (IonWorks Barracuda): α4β2; format: cell-based; conditions: 100% = no change, <100% = inhibition
T3 construct: host or cells: HEK293 or CHO
Procedure, shortened: as §1

Cav2.1 = molecular target: T4, Cav2.1 (Homo sapiens, UniProt O00555); test: cell-based; conditions: 100% = no change, <100% = inhibition
T4 construct: host or cells: HEK293 or CHO
Procedure, shortened: as §1

Cav2.2 = molecular target: T5, Cav2.2 (Homo sapiens, UniProt Q00975); test: cell-based; conditions: 100% = no change, <100% = inhibition
T5 construct: host or cells: HEK293 or CHO
Procedure, shortened: as §1

Kv2.1 = molecular target: T6, Kv2.1 (Homo sapiens, UniProt Q14721); test: cell-based; conditions: 100% = no change, <100% = inhibition
T6 construct: host or cells: HEK293 or CHO
Procedure, shortened: as §1

GABA = test: Ion channel panel (IonWorks Barracuda): GABA; format: cell-based; conditions: 100% = no change, <100% = inhibition
Procedure, shortened: as §1

Nav1.5 = Nav1.5 (Homo sapiens, UniProt Q14524); test: in vitro; conditions: 100% = no change; for Activity of Nav1.5 with peptide, expressed as a percentage of the reference compound: peptide at 0.2 μM; for Activity of Nav1.5 with peptide (percentage of the reference compound): peptide at 20 μM
Procedure, shortened: as §1

hERG = hERG (Homo sapiens, UniProt Q12809); test: in vitro; conditions: 100% = no change, <100% = inhibition
Procedure, shortened: as §1

Kir2.1 = molecular target: T7, Kir2.1 (Homo sapiens, UniProt P63252); test: Ion channel panel (IonWorks Barracuda): Kir2.1; format: cell-based; conditions: 100% = no change, <100% = inhibition
T7 construct: host or cells: HEK293 or CHO
Procedure, shortened: as §1

Kv1.1 = molecular target: T8, Kv1.1 (Homo sapiens, UniProt Q09470); test: cell-based; format: cell-based; conditions: 100% = no change, <100% = inhibition
T8 construct: host or cells: HEK293 or CHO
Procedure, shortened: as §1

Kv1.2 = molecular target: T9, Kv1.2 (Homo sapiens, UniProt P16389); test: cell-based; format: cell-based; conditions: 100% = no change, <100% = inhibition
T9 construct: host or cells: HEK293 or CHO
Procedure, shortened: as §1

Kv1.3 = molecular target: T10, Kv1.3 (Homo sapiens, UniProt P22001); test: cell-based; format: cell-based; conditions: 100% = no change, <100% = inhibition
T10 construct: host or cells: HEK293 or CHO
Procedure, shortened: as §1

Nav1.7 = molecular target: T11, Nav1.7 (Homo sapiens, UniProt Q15858); test: cell-based; format: cell-based; conditions: 100% = no change; for Activity of Nav1.7 with peptide, expressed as a percentage of the reference compound: peptide at 0.2 μM; for Activity of Nav1.7 with peptide (percentage of the reference compound): peptide at 20 μM
T11 construct: host or cells: HEK293 or CHO

NR2A = molecular target: T12, NR2A (Homo sapiens, UniProt Q12879); test: Ion channel panel (IonWorks Barracuda): NR2A; format: cell-based; conditions: 100% = no change, <100% = inhibition
T12 construct: host or cells: HEK293 or CHO
Procedure, shortened: as §1

NR2B = molecular target: T13, NR2B (Homo sapiens, UniProt Q13224); test: Ion channel panel (IonWorks Barracuda): NR2B; format: cell-based; conditions: 100% = no change, <100% = inhibition
T13 construct: host or cells: HEK293 or CHO
Procedure, shortened: as §1

TRPA1 = molecular target: T14, TRPA1 (Homo sapiens, UniProt O75762); test: Ion channel panel (IonWorks Barracuda): TRPA1; format: cell-based; conditions: 100% = no change, <100% = inhibition
T14 construct: host or cells: HEK293 or CHO
Procedure, shortened: as §1

TRPV1 = molecular target: T15, TRPV1 (Homo sapiens, UniProt Q8NER1); test: Ion channel panel (IonWorks Barracuda): TRPV1; format: cell-based; conditions: 100% = no change, <100% = inhibition
T15 construct: host or cells: HEK293 or CHO
Procedure, shortened: as §1

[1] = first of two Nav1.5 columns (probably TP1)
[2] = second of two Nav1.5 columns (probably TP2)
[3] = first of two Nav1.7 columns (probably TP1)
[4] = second of two Nav1.7 columns (probably TP2)

Nav1.5, sequence (Q14524 whole entry): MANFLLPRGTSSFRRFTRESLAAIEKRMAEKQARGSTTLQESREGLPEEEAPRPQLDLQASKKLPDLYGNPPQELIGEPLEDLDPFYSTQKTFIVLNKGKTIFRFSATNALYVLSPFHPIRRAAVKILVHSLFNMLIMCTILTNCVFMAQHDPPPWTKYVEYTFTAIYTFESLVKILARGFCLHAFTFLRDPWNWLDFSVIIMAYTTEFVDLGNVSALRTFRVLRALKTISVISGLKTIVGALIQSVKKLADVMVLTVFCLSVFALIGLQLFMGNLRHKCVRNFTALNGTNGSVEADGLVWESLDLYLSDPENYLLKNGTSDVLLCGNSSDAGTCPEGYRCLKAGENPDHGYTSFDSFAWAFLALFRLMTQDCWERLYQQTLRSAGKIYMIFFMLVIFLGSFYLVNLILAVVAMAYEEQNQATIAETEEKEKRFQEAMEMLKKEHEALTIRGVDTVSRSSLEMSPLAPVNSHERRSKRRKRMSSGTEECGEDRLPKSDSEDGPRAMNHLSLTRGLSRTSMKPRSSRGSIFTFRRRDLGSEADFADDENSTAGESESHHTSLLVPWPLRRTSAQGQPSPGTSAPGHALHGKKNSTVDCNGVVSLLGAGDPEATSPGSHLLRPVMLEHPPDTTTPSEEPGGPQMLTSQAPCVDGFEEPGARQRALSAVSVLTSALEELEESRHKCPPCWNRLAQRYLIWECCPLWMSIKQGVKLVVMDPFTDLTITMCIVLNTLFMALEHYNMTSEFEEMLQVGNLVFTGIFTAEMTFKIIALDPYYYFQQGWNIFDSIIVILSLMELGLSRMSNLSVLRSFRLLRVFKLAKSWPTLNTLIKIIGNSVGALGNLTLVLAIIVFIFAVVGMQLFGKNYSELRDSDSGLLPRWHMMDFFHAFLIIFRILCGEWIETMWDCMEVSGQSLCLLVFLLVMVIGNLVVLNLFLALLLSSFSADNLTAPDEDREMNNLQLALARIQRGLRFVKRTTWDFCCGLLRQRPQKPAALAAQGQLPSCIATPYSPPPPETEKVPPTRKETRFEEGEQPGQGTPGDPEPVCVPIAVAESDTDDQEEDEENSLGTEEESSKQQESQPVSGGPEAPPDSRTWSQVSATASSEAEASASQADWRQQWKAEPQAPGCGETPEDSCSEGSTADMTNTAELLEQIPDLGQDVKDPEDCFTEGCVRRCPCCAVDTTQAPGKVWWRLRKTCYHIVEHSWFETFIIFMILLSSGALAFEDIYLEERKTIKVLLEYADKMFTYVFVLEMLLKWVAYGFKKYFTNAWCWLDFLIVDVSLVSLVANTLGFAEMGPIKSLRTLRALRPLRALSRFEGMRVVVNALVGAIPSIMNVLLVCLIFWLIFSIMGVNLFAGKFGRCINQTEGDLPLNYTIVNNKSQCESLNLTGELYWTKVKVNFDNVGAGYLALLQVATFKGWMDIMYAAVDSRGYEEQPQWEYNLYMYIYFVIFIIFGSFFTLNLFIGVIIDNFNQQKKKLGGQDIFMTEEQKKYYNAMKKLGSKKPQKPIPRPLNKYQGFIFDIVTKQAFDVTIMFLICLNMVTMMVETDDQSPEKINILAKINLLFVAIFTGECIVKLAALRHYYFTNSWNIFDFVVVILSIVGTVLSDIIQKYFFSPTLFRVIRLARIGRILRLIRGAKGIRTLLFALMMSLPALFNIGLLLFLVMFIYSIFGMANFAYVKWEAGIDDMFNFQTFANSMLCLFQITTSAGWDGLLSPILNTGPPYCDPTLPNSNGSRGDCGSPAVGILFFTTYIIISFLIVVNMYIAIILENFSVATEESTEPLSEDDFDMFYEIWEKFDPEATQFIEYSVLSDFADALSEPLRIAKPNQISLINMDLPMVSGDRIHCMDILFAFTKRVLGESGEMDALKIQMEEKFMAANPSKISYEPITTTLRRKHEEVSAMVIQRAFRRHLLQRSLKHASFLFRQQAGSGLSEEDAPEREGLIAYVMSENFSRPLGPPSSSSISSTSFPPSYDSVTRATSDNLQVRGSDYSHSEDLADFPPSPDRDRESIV
T11 sequence (Q15858 whole entry): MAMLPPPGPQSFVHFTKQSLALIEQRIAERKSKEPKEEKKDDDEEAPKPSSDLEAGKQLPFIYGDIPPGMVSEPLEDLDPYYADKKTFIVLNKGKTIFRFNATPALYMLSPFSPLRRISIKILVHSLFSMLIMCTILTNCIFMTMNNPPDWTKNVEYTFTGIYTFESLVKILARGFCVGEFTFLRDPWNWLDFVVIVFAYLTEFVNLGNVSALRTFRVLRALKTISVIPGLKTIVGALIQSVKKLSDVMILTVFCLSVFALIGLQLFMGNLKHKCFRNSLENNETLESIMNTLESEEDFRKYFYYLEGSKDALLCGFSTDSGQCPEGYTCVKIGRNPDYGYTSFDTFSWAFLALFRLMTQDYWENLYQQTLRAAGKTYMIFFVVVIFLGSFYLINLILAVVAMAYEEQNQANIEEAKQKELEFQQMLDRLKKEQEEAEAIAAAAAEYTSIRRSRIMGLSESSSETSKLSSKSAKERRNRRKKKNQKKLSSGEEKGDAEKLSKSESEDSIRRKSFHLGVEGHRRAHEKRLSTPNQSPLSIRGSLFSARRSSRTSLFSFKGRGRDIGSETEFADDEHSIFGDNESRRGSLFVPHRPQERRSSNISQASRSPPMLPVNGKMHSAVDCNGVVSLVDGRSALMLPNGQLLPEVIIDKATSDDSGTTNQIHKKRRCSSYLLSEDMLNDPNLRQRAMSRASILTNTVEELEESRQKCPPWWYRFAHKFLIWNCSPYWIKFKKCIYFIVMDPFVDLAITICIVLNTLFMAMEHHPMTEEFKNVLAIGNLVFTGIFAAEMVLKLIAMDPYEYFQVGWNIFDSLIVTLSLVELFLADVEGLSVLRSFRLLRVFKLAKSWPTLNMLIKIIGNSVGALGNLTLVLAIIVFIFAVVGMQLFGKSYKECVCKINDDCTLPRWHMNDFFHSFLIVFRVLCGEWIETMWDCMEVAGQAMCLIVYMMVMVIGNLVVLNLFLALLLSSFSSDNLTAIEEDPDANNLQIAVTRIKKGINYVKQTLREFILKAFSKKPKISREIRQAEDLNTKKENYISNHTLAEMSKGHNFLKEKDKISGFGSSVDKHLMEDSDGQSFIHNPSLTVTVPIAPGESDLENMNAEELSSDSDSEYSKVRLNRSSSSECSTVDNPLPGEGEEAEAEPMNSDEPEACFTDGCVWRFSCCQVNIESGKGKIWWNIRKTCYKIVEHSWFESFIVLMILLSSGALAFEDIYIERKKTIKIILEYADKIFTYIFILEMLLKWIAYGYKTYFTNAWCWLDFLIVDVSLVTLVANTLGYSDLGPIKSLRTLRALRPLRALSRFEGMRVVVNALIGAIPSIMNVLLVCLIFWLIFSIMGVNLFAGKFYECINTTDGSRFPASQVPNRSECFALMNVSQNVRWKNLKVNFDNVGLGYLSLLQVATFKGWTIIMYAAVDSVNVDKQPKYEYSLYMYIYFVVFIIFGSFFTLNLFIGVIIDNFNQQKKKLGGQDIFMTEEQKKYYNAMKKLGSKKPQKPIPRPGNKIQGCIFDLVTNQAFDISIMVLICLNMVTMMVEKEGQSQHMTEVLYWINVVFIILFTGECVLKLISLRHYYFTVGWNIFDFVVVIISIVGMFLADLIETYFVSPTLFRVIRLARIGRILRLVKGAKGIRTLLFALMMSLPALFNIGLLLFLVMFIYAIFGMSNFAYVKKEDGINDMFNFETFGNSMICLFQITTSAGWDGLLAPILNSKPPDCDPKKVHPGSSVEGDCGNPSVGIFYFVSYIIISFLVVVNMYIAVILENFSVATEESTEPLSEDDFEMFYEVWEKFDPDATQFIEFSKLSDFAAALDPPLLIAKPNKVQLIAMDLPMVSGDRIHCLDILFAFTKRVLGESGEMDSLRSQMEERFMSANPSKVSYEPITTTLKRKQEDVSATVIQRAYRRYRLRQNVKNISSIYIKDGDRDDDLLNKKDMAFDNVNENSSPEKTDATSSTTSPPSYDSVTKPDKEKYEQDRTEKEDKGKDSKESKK
T14 sequence (O75762 whole entry): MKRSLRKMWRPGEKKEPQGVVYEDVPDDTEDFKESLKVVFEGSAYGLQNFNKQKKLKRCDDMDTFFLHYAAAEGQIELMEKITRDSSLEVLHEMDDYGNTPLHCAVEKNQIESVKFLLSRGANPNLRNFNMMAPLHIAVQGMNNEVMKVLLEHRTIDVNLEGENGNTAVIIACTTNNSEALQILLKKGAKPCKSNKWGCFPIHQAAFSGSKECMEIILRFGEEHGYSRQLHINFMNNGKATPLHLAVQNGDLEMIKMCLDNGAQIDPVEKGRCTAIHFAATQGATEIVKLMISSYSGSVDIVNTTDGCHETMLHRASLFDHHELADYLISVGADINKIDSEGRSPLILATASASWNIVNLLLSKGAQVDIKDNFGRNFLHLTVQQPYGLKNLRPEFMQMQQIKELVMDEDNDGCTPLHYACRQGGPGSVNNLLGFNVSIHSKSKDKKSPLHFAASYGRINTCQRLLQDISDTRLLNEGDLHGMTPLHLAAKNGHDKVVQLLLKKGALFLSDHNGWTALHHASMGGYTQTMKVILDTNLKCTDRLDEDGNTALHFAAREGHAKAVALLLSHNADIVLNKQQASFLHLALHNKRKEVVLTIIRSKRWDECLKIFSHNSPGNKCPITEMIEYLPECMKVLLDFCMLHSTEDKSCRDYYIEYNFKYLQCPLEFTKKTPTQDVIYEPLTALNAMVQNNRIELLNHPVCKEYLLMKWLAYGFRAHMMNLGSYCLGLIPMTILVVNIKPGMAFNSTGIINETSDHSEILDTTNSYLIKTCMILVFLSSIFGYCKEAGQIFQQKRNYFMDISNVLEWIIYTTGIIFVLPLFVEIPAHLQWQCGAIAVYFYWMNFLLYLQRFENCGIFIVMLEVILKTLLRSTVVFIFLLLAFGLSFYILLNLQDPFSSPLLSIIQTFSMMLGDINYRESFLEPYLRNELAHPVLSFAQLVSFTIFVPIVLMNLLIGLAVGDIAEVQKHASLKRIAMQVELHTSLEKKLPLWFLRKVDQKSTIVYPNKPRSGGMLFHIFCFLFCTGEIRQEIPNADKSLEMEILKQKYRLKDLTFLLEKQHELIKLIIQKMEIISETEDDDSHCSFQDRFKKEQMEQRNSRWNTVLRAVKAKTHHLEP

With “36 (GSAQEPVKGPVSTKPGSCPIILIRCAMLNPPNRCLKDTDCPGIKKCCEGSCGMACFVPQ) [compound 36]” the “Activity of 5HT3a with peptide (percentage of the reference compound)” value (5HT3a) was 83%, the “Activity of 5HT3a with peptide, expressed as a percentage of the reference compound” value (5HT3a) was 81% and the “Activity of a3b4 with peptide, expressed as a percentage of the reference compound” value (α3β4; peptide at 0.2 μM) was 95%. The “Activity of a3b4 with peptide (percentage of the reference compound)” value (α3β4; peptide at 20 μM) was 87%, the “Activity of a4b2 with peptide, expressed as a percentage of the reference compound” value (α4β2; peptide at 0.2 μM) was 62% and the “Activity of a4b2 with peptide (percentage of the reference compound)” value (α4β2; peptide at 20 μM) was 57%. The “Activity of Cav2.1 with peptide, expressed as a percentage of the reference compound” value (Cav2.1; peptide at 0.2 μM) was 96%, the “Activity of Cav2.1 with peptide (percentage of the reference compound)” value (Cav2.1; peptide at 20 μM) was 102% and the “Activity of Cav2.2 with peptide, expressed as a percentage of the reference compound” value (Cav2.2; peptide at 0.2 μM) was 114%. For the same substance, the “Activity of Cav2.2 with peptide (percentage of the reference compound)” value (Cav2.2; peptide at 20 μM) was 87%, the “Activity of Kv2.1 with peptide, expressed as a percentage of the reference compound” value (Kv2.1; peptide at 0.2 μM) was 104% and the “Activity of Kv2.1 with peptide (percentage of the reference compound)” value (Kv2.1; peptide at 20 μM) was 92%. The “Activity of GABA with peptide, expressed as a percentage of the reference compound” value (GABA; peptide at 0.2 μM) was 118%, the “Activity of GABA with peptide (percentage of the reference compound)” value (GABA; peptide at 20 μM) was 106% and the “Activity of Nav1.5 with peptide, expressed as a percentage of the reference compound” value (Nav1.5; [1]) was 110%. For the same substance, the “Activity of Nav1.5 with peptide, expressed as a percentage of the reference compound” value (Nav1.5; [2]) was 109%, the “Activity of Nav1.5 with peptide (percentage of the reference compound)” value (Nav1.5; [1]) was 107% and the “Activity of Nav1.5 with peptide (percentage of the reference compound)” value (Nav1.5; [2]) was 112%. The “Activity of hERG with peptide, expressed as a percentage of the reference compound” value (hERG; peptide at 0.2 μM) was 84%, the “Activity of hERG with peptide (percentage of the reference compound)” value (hERG; peptide at 20 μM) was 65% and the “Activity of Kir2.1 with peptide, expressed as a percentage of the reference compound” value (Kir2.1; peptide at 0.2 μM) was 108%. For the same substance, the “Activity of Kir2.1 with peptide (percentage of the reference compound)” value (Kir2.1; peptide at 20 μM) was 91%, the “Activity of Kv1.1 with peptide, expressed as a percentage of the reference compound” value (Kv1.1; peptide at 0.2 μM) was 82% and the “Activity of Kv1.1 with peptide (percentage of the reference compound)” value (Kv1.1; peptide at 20 μM) was 101%. The “Activity of Kv1.2 with peptide, expressed as a percentage of the reference compound” value (Kv1.2; peptide at 0.2 μM) was 91%, the “Activity of Kv1.2 with peptide (percentage of the reference compound)” value (Kv1.2; peptide at 20 μM) was 87% and the “Activity of Kv1.3 with peptide, expressed as a percentage of the reference compound” value (Kv1.3; peptide at 0.2 μM) was 96%. The “Activity of Kv1.3 with peptide (percentage of the reference compound)” value (Kv1.3; peptide at 20 μM) was 93%, the “Activity of Nav1.7 with peptide, expressed as a percentage of the reference compound” value (Nav1.7; [3]) was 108% and the “Activity of Nav1.7 with peptide, expressed as a percentage of the reference compound” value (Nav1.7; [4]) was 118%. The “Activity of Nav1.7 with peptide (percentage of the reference compound)” value (Nav1.7; [3]) was 91%, the “Activity of Nav1.7 with peptide (percentage of the reference compound)” value (Nav1.7; [4]) was 71% and the “Activity of NR2A with peptide, expressed as a percentage of the reference compound” value (NR2A; peptide at 0.2 μM) was 115%. For the same substance, the “Activity of NR2A with peptide (percentage of the reference compound)” value (NR2A; peptide at 20 μM) was 103%, the “Activity of NR2B with peptide, expressed as a percentage of the reference compound” value (NR2B; peptide at 0.2 μM) was 109% and the “Activity of NR2B with peptide (percentage of the reference compound)” value (NR2B; peptide at 20 μM) was 96%. The “Activity of TRPA1 with peptide, expressed as a percentage of the reference compound” value (TRPA1; peptide at 0.2 μM) was 106%, the “Activity of TRPA1 with peptide (percentage of the reference compound)” value (TRPA1; peptide at 20 μM) was 92% and the “Activity of TRPV1 with peptide, expressed as a percentage of the reference compound” value (TRPV1; peptide at 0.2 μM) was 103%. For the same substance, the “Activity of TRPV1 with peptide (percentage of the reference compound)” value (TRPV1; peptide at 20 μM) was 69%.

Reference: patent US20200262877A1, “ION CHANNEL-BINDING PEPTIDES AND METHODS OF USE THEREOF” (priority 2017, published 2020)
